Test results taken from paper PMC11695720 (Nature Communications, 2025).

B1: FD-5D antibody (antibody, V domains shown)
VH: EVQLVESGGGLVQPGGSLRLSCAASGFTFSSYSMNWVRQAPGKGLEWVSYISSSSSTIYYADSVKGRFTISRDNAKNSLYLQMNSLRAEDTAVYYCASPGGITAAGTSVLFGYYGMDVWGQGTTVTVSS
VL: not shown
notes: source: ExpiCHO, transfected, purified (MabSelect SuRe); copies: 2 + 2
B2: REGN10987 therapeutic antibody (antibody, V domains shown)
VH: QVQLVESGGGVVQPGRSLRLSCAASGFTFSNYAMYWVRQAPGKGLEWVAVISYDGSNKYYADSVKGRFTISRDNSKNTLYLQMNSLRTEDTAVYYCASGSDYGDYLLVYWGQGTLVTVSS
VL: QSALTQPASVSGSPGQSITISCTGTSSDVGGYNYVSWYQQHPGKAPKLMIYDVSKRPSGVSNRFSGSKSGNTASLTISGLQSEDEADYYCNSLTSISTWVFGGGTKLTVL
notes: as for B1
B3: FI-3A antibody (antibody, V domains shown)
VH: EVQLLESGGGLIQPGGSLRLSCAASGFTVSSNYMSWVRQAPGKGLEWVSVIYSGGSTYYADSVKGRFTISRDNSKNTLYLQMNSLRAEDTAVYYCARDHVRPGMNIWGQGTMVTVSS
VL: not shown
notes: as for B1
B4: FD-11A IgG1 antibody (antibody, V domains shown)
VH: EVQLVESGGGVVQPGRSLRLSCAASGFTFSSYGMHWVRQAPGKGLEWVAVIWYDGSNKYYADSVKGRFTISRDNSKNTLYLQMNSLRAEDTAVYYCAKGPDILTGYYNYYYYGMDVWGQGTMVTVSS
VL: QSVLTQPPSVSGAPGQRVTISCTGSSSNIGAGYDVHWYQQLPGTAPKLLIYGNSNRPSGVPDRFSGSKSGTSASLAITGLQAEDEADYYCQSYDSSLSGFYVVFGGGTKLTVL
notes: also called IgG1 FD-11A; source: ExpiCHO, transfected, purified (MabSelect SuRe); copies: 2 + 2
B5: EY6A antibody (antibody, V domains shown)
VH: EVQLVESGGGVVQPGRSLRLSCAASAFTFSSYDMHWVRQAPGKGLEWVAVISYDGSNKYYADSVKGRFTISRDNSKNTLYLQMNSLRAEDTAVYYCAKDGGKLWVYYFDYWGQGTLVTVSS
VL: not shown
notes: as for B1

Experiments:
[1] = target: Biotinylated SARS-CoV-2 (Wuhan) RBD (SARS-CoV-2 (Wuhan), UniProt P0DTC2, biotin (EZ-Link Sulfo-NHS-LC-biotin per p-0040; Lys15 biotinylation site within the N-terminal AviTag per fig-0003 and p-0075)); experiment: SPR; details: both partners purified
[2] = target: Soluble monovalent SARS-CoV-2 RBD (RBD-H) (SARS-CoV-2 (Wuhan, assumed), UniProt P0DTC2); experiment: SPR; details: both partners purified

| Binder | binding result [1] | binding result [2] | Kd [1] |
| --- | --- | --- | --- |
| B1 | binds | binds |  |
| B2 | binds |  |  |
| B3 | binds | binds |  |
| B4 |  |  | 1230 nM |
| B5 | binds | binds |  |
